Measurements published in patent publication US20140274782A1, “AFFINITY REAGENTS AND METHODS FOR DETECTION, PURIFICATION, AND PROTEOMIC ANALYSIS OF METHYLATED PROTEINS” (The Board of Trustees of the Leland Stanford Junior …, priority 2013, published 2014).

Legend:
[1] = target: T1, G9a and GLP (Homo sapiens, UniProt Q96KQ7+Q9H9B1); assay: Triple SILAC pull-down after UNC0638 treatment of 293T cells, DMSO/UNC0638 ratio of protein captured by 3×MBT; format: cell-based; parameters: cells were treated for 24 hours with UNC0638 at 2.5 μM or DMSO vehicle control; endogenous in cells; host or cells: HEK 293T; details: for Relative to UNC0638 UNC Heavy / Relative to UNC0638 UNC Light: SILAC ratio DMSO/UNC0638 of protein pulled down with 3xMBT; for Relative to UNC0638 UNC Heavy: UNC0638 in heavy SILAC media; for Relative to UNC0638 UNC Light: UNC0638 in light SILAC media; for Relative to UNC0638 Average: average of UNC Light and UNC Heavy experiments;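 on all read-outs here: mass spectrometry (Q-Exactive) SILAC quantitation, DMSO/UNC0638 ratio computed after subtracting 3×MBTD355N mutant pull-down background, only proteins with at least twofold 3×MBT over mutant signal considered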
T1 sequence (Q96KQ7 2-1210 limits assumed): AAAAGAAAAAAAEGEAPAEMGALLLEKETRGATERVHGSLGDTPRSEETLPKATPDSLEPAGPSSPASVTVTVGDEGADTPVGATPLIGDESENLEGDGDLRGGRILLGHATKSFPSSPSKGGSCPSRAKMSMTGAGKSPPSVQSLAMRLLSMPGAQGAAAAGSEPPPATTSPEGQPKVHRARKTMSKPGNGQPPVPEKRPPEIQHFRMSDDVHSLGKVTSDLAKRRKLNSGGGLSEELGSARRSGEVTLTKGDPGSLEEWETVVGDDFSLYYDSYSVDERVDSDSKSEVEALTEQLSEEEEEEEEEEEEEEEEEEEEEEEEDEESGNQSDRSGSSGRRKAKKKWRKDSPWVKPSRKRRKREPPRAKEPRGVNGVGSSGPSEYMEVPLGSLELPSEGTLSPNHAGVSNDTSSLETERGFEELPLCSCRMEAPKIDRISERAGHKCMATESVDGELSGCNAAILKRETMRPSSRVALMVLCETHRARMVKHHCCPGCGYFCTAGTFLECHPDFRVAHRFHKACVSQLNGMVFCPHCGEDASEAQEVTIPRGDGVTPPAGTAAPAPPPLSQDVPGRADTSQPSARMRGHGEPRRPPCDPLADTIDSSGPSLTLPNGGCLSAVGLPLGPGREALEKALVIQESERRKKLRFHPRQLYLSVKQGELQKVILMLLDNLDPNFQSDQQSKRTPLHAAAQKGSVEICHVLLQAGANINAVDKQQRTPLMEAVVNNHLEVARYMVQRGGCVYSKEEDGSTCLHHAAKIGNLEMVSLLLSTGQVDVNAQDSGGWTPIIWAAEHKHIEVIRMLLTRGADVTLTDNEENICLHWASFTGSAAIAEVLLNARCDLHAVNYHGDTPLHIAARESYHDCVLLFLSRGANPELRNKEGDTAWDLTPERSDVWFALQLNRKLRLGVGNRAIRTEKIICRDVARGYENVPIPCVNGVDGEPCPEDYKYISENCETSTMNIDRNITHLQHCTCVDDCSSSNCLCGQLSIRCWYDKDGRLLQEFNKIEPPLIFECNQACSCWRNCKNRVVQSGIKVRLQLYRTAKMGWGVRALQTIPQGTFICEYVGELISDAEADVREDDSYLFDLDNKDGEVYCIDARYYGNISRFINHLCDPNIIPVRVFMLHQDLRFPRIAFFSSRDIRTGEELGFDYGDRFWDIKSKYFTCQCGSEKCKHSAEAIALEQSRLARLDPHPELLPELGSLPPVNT
T1 sequence (Q9H9B1 2-1298 limits assumed): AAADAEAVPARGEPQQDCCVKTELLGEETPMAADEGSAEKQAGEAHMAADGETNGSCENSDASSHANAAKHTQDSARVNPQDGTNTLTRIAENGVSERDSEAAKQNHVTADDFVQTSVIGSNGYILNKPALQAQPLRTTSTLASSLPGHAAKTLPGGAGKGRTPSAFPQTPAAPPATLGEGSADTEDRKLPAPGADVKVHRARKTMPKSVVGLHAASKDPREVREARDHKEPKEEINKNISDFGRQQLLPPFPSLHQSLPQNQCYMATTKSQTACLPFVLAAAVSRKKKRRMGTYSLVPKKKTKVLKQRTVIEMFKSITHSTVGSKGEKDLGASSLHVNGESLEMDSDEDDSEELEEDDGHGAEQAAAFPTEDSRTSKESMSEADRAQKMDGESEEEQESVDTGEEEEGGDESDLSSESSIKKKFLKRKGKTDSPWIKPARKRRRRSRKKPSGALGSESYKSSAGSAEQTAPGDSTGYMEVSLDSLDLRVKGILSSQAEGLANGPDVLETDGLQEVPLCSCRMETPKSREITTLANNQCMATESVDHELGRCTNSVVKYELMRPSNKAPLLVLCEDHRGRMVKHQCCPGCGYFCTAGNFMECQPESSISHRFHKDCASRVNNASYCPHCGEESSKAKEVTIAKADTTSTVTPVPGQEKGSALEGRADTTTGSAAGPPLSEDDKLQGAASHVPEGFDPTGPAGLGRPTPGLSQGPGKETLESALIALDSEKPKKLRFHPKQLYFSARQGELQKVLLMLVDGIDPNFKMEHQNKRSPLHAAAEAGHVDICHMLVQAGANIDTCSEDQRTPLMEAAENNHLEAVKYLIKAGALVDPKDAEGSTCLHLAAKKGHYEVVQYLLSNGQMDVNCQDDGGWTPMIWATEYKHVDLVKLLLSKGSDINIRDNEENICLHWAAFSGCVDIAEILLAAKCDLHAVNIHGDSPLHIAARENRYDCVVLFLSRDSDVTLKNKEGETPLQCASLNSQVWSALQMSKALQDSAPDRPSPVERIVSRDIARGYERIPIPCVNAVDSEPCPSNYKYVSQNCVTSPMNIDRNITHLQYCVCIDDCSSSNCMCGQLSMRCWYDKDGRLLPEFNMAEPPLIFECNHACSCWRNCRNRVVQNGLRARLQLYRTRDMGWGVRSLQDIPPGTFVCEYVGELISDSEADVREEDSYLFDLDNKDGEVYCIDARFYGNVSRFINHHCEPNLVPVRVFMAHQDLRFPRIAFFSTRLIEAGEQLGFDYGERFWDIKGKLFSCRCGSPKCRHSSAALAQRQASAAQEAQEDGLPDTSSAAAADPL

[2] = system: 3×MBT domain of L3MBTL1; assay: Triple SILAC pull-down, 3xMBT/3xMBTD355N ratio (cytoplasmic, nuclear and chromatin fractions of 293T cells); format: binding, human; details: SILAC ratio; for 3xMBT/D355N UNC Heavy / 3xMBT/D355N UNC Light: pull-down 3xMBT vs 3xMBTD355N; for 3xMBT/D355N UNC Heavy: experiment with UNC0638 in heavy SILAC media; for 3xMBT/D355N UNC Light: experiment with UNC0638 in light SILAC media;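 on all read-outs here: proteins quantified with MaxQuant, requiring at least two unique peptides and quantification in both label directions, normalized to the mean of proteins from a digested loading control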

B1: CHERP (protein, UniProt Q8IWX8 1-916, looked up)
Calcium homeostasis …: MEMPLPPDDQELRNVIDKLAQFVARNGPEFEKMTMEKQKDNPKFSFLFGGEFYSYYKCKLALEQQQLICKQQTPELEPAATMPPLPQPPLAPAAPIPPAQGAPSMDELIQQSQWNLQQQEQHLLALRQEQVTAAVAHAVEQQMQKLLEETQLDMNEFDNLLQPIIDTCTKDAISAGKNWMFSNAKSPPHCELMAGHLRNRITADGAHFELRLHLIYLINDVLHHCQRKQARELLAALQKVVVPIYCTSFLAVEEDKQQKIARLLQLWEKNGYFDDSIIQQLQSPALGLGQYQATLINEYSSVVQPVQLAFQQQIQTLKTQHEEFVTSLAQQQQQQQQQQQQLQMPQMEAEVKATPPPPAPPPAPAPAPAIPPTTQPDDSKPPIQMPGSSEYEAPGGVQDPAAAGPRGPGPHDQIPPNKPPWFDQPHPVAPWGQQQPPEQPPYPHHQGGPPHCPPWNNSHEGMWGEQRGDPGWNGQRDAPWNNQPDAAWNSQFEGPWNSQHEQPPWGGGQREPPFRMQRPPHFRGPFPPHQQHPQFNQPPHPHNFNRFPPRFMQDDFPPRHPFERPPYPHRFDYPQGDFPAEMGPPHHHPGHRMPHPGINEHPPWAGPQHPDFGPPPHGFNGQPPHMRRQGPPHINHDDPSLVPNVPYFDLPAGLMAPLVKLEDHEYKPLDPKDIRLPPPMPPSERLLAAVEAFYSPPSHDRPRNSEGWEQNGLYEFFRAKMRARRRKGQEKRNSGPSRSRSRSKSRGRSSSRSNSRSSKSSGSYSRSRSRSCSRSYSRSRSRSRSRSRSSRSRSRSQSRSRSKSYSPGRRRRSRSRSPTPPSSAGLGSNSAPPIPDSRLGEENKGHQMLVKMGWSGSGGLGAKEQGIQDPIKGGDVRDKWDQYKGVGVALDDPYENYRRNKSYSFIARMKARDECK
[1]
  Relative to UNC0638 UNC Heavy: 0.38 log base 2
  Relative to UNC0638 UNC Light: 0.05 log base 2
  Relative to UNC0638 Average: 0.22 log base 2
[2]
  3xMBT/D355N UNC Heavy: 1.58 log base 2
  3xMBT/D355N UNC Light: 2.26 log base 2

B2: ZC3H11A (protein, UniProt O75152 1-810, looked up)
Zinc finger CCCH …: MPNQGEDCYFFFYSTCTKGDSCPFRHCEAAIGNETVCTLWQEGRCFRQVCRFRHMEIDKKRSEIPCYWENQPTGCQKLNCAFHHNRGRYVDGLFLPPSKTVLPTVPESPEEEVKASQLSVQQNKLSVQSNPSPQLRSVMKVESSENVPSPTHPPVVINAADDDEDDDDQFSEEGDETKTPTLQPTPEVHNGLRVTSVRKPAVNIKQGECLNFGIKTLEEIKSKKMKEKSKKQGEGSSGVSSLLLHPEPVPGPEKENVRTVVRTVTLSTKQGEEPLVRLSLTERLGKRKFSAGGDSDPPLKRSLAQRLGKKVEAPETNIDKTPKKAQVSKSLKERLGMSADPDNEDATDKVNKVGEIHVKTLEEILLERASQKRGELQTKLKTEGPSKTDDSTSGARSSSTIRIKTFSEVLAEKKHRQQEAERQKSKKDTTCIKLKIDSEIKKTVVLPPIVASRGQSEEPAGKTKSMQEVHIKTLEEIKLEKALRVQQSSESSTSSPSQHEATPGARRLLRITKRTGMKEEKNLQEGNEVDSQSSIRTEAKEASGETTGVDITKIQVKRCETMREKHMQKQQEREKSVLTPLRGDVASCNTQVAEKPVLTAVPGITRHLTKRLPTKSSQKVEVETSGIGDSLLNVKCAAQTLEKRGKAKPKVNVKPSVVKVVSSPKLAPKRKAVEMHAAVIAAVKPLSSSSVLQEPPAKKAAVAVVPLVSEDKSVTVPEAENPRDSLVLPPTQSSSDSSPPEVSGPSSSQMSMKTRRLSSASTGKPPLSVEDDFEKLIWEISGGKLEAEIDLDPGKDEDDLLLELSEMIDS
[1]
  Relative to UNC0638 UNC Heavy: 0.32 log base 2
  Relative to UNC0638 UNC Light: 0.12 log base 2
  Relative to UNC0638 Average: 0.22 log base 2
[2]
  3xMBT/D355N UNC Heavy: 2.23 log base 2
  3xMBT/D355N UNC Light: 2.81 log base 2

B3: WD repeat-containing protein 70 (protein, UniProt Q9NW82 1-654, looked up)
WD repeat-containing protein …: MERSGPSEVTGSDASGPDPQLAVTMGFTGFGKKARTFDLEAMFEQTRRTAVERSRKTLEAREKEEEMNREKELRRQNEDIEPTSSRSNVVRDCSKSSSRDTSSSESEQSSDSSDDELIGPPLPPKMVGKPVNFMEEDILGPLPPPLNEEEEEAEEEEEEEEEEENPVHKIPDSHEITLKHGTKTVSALGLDPSGARLVTGGYDYDVKFWDFAGMDASFKAFRSLQPCECHQIKSLQYSNTGDMILVVSGSSQAKVIDRDGFEVMECIKGDQYIVDMANTKGHTAMLHTGSWHPKIKGEFMTCSNDATVRTWEVENPKKQKSVFKPRTMQGKKVIPTTCTYSRDGNLIAAACQNGSIQIWDRNLTVHPKFHYKQAHDSGTDTSCVTFSYDGNVLASRGGDDSLKLWDIRQFNKPLFSASGLPTMFPMTDCCFSPDDKLIVTGTSIQRGCGSGKLVFFERRTFQRVYEIDITDASVVRCLWHPKLNQIMVGTGNGLAKVYYDPNKSQRGAKLCVVKTQRKAKQAETLTQDYIITPHALPMFREPRQRSTRKQLEKDRLDPLKSHKPEPPVAGPGRGGRVGTHGGTLSSYIVKNIALDKTDDSNPREAILRHAKAAEDSPYWVSPAYSKTQPKTMFAQVESDDEEAKNEPEWKKRKI
[1]; SILAC ratio of protein captured by 3xMBT, 293T cells treated 24 hours with UNC0638 at 2.5 μM or DMSO
  Protein Ratios DMSO/UNC0638: 1.3
[2]; pull-down by 3xMBT vs 3xMBTD355N, 293T cells
  Protein Ratios 3xMBT/D355N: 5.9

B4: PEF1 (protein, UniProt Q9UBV8 1-284, looked up)
Peflin: MASYPYRQGCPGAAGQAPGAPPGSYYPGPPNSGGQYGSGLPPGGGYGGPAPGGPYGPPAGGGPYGHPNPGMFPSGTPGGPYGGAAPGGPYGQPPPSSYGAQQPGLYGQGGAPPNVDPEAYSWFQSVDSDHSGYISMKELKQALVNCNWSSFNDETCLMMINMFDKTKSGRIDVYGFSALWKFIQQWKNLFQQYDRDRSGSISYTELQQALSQMGYNLSPQFTQLLVSRYCPRSANPAMQLDRFIQVCTQLQVLTEAFREKDTAVQGNIRLSFEDFVTMTASRML
[1]
  Relative to UNC0638 UNC Heavy: 0.30 log base 2
  Relative to UNC0638 UNC Light: 0.17 log base 2
  Relative to UNC0638 Average: 0.24 log base 2
[2]
  3xMBT/D355N UNC Heavy: 1.48 log base 2
  3xMBT/D355N UNC Light: 1.78 log base 2
